# Biological target: soluble human PEX3 (reading frame from G25, C235S) (human) (UniProt P56589)
# Test: native MS; PEX3 and PEX19 mixed in equimolar concentrations (5-10 µM), overnight at 4°C in 20 mM sodium phosphate, 300 mM NaCl, 1 mM DTT, pH 8.0; nano-electrospray on a QToF I under conditions that preserve non-covalent interactions; complex analysed at 10 µM
# UniProt P56589, sequence (P56589 25-373 C235S): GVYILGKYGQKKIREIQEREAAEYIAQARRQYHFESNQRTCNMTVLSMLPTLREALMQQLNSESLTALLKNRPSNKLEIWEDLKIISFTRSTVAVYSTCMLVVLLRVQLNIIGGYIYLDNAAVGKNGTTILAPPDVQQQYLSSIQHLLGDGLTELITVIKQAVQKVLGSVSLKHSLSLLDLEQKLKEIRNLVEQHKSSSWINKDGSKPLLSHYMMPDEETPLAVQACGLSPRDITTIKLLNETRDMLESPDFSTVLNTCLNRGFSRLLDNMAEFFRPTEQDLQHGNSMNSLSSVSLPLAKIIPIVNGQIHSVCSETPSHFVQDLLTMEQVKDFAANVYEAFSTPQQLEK
substance,measurement,value
full length human PEX19 with an N-terminal His-tag (from UniProt P56589 1-373) (natural protein),stoichiometry N,1

# From paper PMC4111287
